Source: patent publication US10154881B2, “Methods and compositions for tissue adhesives” (ARIZONA BOARD OF REGENTS FOR AND ON BEHALF OF ARIZONA STATE …, priority 2012, dated 2018)
Several values for one entry are separate records, joined by “and”; a condition that tells them apart may be missing. Identical values can stand only once.

B1: C12ELP: Elastin-like polypeptide with 12 cysteine residues, SEQ ID NO:2, expressed in E. coli (protein)
chain: MVSACRGPGVGVPGVGVPGVGVPGVGVPGVGVPGVGVPGVGVPGVGVPGVGVPGVGVPGVGVPGVGVPGVGVPGVGVPGVGVPGVGVPGVGVPGVGVPGVGVPGVGVPGVGVPGVGVPGVGVPGVGVPGVGVPGVGVPGVGVPGVGVPGVGVPGVGVPGVGVPGVGVPGVGVPGVGVPGVGVPGVGVPGVGVPGVGVPGVGVPGVGVPG
modifications: elastin-like polypeptide
B2: C8ELP: Elastin-like polypeptide with 8 cysteine residues, SEQ ID NO:1, expressed in E. coli (protein)
chain: MVSACRGPGVGVPGVGVPGVGVPGVGVPGVGVPGVGVPGVGVPGVGVPGVGVPGVGVPGVGVPGVGVPGVGVPGVGVPGVGVPGVGVPGVGVPGVGVPGVGVPGVGVPGVGVPGVGVPGVGVPGVGVPGVGVPGVGVPGVGVPGVGVPGVGVPGVGVPGVGVPGVGVPGVGVPGVGVPGVGVPGVGVPGVGVPGVGVPGVGVPGVGVPGVGVPGVGVPGVGVPGCGVPGVGVPGVGVPGVGVPGVGVPGCGVPGVGVPGVGVPGVGVPGVGVPGCGVPGVGVPGVGVPGVGVPGVGVPGCGVPGVGVPGVGVPGVGVPGVGVPGCGVPGVGVPGVGVPGVGVPGVGVPGCGVPGVGVPGVGVPGVGVPGVGVPGCGVPGVGVPGVGVPGVGVPGVGVPGCGVPGVGVPGWP
modifications: elastin-like polypeptide

Assay: Determination of transition temperature (Tt) of ELPs by absorbance at 610 nm
Type: physicochemical
Details: 0.5× PBS; temperature at which absorbance at 610 nm reaches 50% of maximum
Method: The transition temperatures (Tt) of C8ELP and C12ELP were characterized by monitoring the absorbance at 610 nm as a function of temperature with an UV-visible spectrophotometer (Beckman DU530) in 0.5× phosphate-buffered solution (PBS). Briefly, 1 ml of C8ELP (0.5 mg/ml in 0.5×PBS) and 1 ml of C12ELP (1 mg/ml in 0.5×PBS) were prepared and placed in 1.5-ml disposable cuvettes. The temperature of CnELP (n: the number of cysteines in the ELP repeat sequence; n=8/12) was tuned by placing the CnELP-contained cuvette into a Precision 288 Digital Water Bath (Thermo Scientific) and was recalibrated by FLUKE 54 II (Type K) thermometer before absorbance measurement. The absorbance of CnELP was monitored at 610 nm with an UV-visible spectrophotometer (Beckman DU530) immediately after withdrawing the cuvette out of the water bath. The Tt is defined as the temperature at which the absorbance of CnELP solution reaches 50% of the maximum value. The temperature response of the C8ELP and C12ELP indicated Tt values of 31.3 and 30.5° C., respectively.

| Molecule | Transition temperature (Tt) |
| --- | --- |
| B1 | 30.4 °C and 30.5 °C |
| B2 | 31.3 °C |
